Measurements as given in publication PMC1890005 (The Journal of biological chemistry, 2006).

Target: T1, σ^C4 domain of M. tuberculosis σ^C (M. tuberculosis)
T1 chain: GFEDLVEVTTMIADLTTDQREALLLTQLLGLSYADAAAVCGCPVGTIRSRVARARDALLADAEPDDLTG
Assay: SPR

B1: σ^C2 domain of M. tuberculosis σ^C (domain or fragment)
chain: MTATASDDEAVTALALSAAKGNGRALEAFIKATQQDVWRFVAYLSDVGSADDLTQETFLRAIGAIPRFSARSSARTWLLAIARHVVADHIRHVRSRPRTTRGARPEHLIDGD
  Kd: 1810 ± 30 nM
